Experimental data: publication PMC4201288

Target: T1, PaFAN1 (Pseudomonas aeruginosa, UniProt Q9I2N0 1-559)
T1 sequence: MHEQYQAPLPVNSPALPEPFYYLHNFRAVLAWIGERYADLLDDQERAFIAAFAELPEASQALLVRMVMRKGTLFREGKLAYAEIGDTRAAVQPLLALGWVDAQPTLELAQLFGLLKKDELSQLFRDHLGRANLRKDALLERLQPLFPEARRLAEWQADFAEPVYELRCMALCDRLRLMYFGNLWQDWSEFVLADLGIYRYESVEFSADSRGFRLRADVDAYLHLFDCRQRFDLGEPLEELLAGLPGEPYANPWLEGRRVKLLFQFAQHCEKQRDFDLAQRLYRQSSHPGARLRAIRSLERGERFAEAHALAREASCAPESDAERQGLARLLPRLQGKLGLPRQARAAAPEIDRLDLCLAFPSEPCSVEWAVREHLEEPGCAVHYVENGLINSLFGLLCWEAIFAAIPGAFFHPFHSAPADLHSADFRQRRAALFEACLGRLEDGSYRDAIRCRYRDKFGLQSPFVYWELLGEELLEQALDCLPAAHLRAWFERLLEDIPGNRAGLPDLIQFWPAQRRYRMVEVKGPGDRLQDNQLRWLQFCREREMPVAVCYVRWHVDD
Test: crystal structure

B1: 5' flap DNA, 22-base template, 4-nt 5' flap (crystal I) (structured_DNA)
DNA 1: GAATGTGTGTCTCAATCCCAAC
DNA 2: GTTGGGATTG
DNA 3: AACCAGACACACATTC
- binding result: binds
